# Values of other authors in article PMC8257665.
# Legend:
# [1] = molecular target: Glu143 (UniProt position 143, FGYMGEAGIMA); conditions: ground (dark) state GPR implied; not stated explicitly
# [2] = molecular target: Glu109 (UniProt position 109, PLLICEFYLIL); conditions: ground (dark) state GPR implied; not stated explicitly
substance,measurement,setting,value
Green-light absorbing proteorhodopsin (GPR) (uncultured marine gamma-proteobacterium (the article says only 'marine γ-proteobacteria')),pKa,[1],> 9.0
same,pKa,[2],> 8.5
